Blank lines part the entries; values can stand above or below the molecule they belong to. Where no end group is shown, it is not given here.
What was measured:
LGR7 = target: T1, LGR7 (Homo sapiens, UniProt Q9HBX9); assay: Receptor-activation analysis: cAMP production in LGR7-expressing HEK293T cells; format: cell-based; details: for pEC50 on the activation of LGR7: HEK293T cells stably expressing LGR7, mean ± S.E., ND = pEC50 not measurable; for LGR7-activation activity (result in words): LGR7-expressing HEK293T cells
T1 construct: HEK293T cells stably expressing recombinant LGR7 or LGR8; expressed in transfected cells
T1 sequence (Q9HBX9 1-757): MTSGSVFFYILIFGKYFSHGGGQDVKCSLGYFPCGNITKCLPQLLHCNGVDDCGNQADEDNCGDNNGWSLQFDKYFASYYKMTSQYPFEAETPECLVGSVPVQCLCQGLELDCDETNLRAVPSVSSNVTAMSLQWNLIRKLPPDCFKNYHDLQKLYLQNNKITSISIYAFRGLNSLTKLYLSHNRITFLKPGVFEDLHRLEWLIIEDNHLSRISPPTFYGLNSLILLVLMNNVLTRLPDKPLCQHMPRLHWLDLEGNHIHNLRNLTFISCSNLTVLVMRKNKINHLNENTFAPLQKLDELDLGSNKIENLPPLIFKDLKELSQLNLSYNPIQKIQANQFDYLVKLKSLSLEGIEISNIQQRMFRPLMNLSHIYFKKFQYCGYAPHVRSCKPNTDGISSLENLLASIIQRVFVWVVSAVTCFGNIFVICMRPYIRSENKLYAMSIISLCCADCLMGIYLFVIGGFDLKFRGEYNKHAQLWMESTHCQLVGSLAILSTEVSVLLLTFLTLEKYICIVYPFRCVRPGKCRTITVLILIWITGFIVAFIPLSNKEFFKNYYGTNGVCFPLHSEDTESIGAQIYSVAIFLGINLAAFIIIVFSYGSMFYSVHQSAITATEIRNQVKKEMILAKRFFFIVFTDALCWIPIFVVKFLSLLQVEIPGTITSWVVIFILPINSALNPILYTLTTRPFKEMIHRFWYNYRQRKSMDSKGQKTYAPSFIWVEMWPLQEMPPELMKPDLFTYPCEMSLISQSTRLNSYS
Protocol: (§1) The bioactivity of relaxin family peptides was determined based on the stimulation of adenylate cyclase activity in HEK293T cells stably expressing recombinant LGR7 or LGR8. Stable LGR7- or LGR8-expressing cells were maintained in Dulbecco's modified Eagle's medium/F-12 media supplemented with […] Zeocin (Invitrogen). After seeding at a density of 2×10^5 cells per well in 500 μl of Dulbecco's modified Eagle's medium/F-12 medium containing 0.1% bovine serum albumin in 48-well plates, cells were preincubated at 37° C. for 30 min in the presence of 0.25 mM 3-isobutyl-1-methylxanthine before treatment with increasing concentrations of peptides (from 0 to 100 nM) in quadruplicate. Twelve hours after treatment, the culture was reacted with acetic anhydride/triethylamine, and total cAMP content in cell lysates was measured using a specific cAMP radioimmunoassay. A nontagged human RLN2 peptide was used as a standard to verify the bioactivity of tagged RLN2 peptides.
(§2) Receptor-activation and receptor binding activity curves generated in nonlinear regression analyses (Prism; GraphPad Software, San Diego, Calif.) were evaluated relative to the samples without hormone treatment. In all cases data are reported as the mean±S.E. of assays in triplicate or quadruplicate. Statistically significant responses (p<0.05) were determined for each stimulated response to the average nonspecific response from control samples using analysis of variance and Student's t test.

LGR8 = target: T2, LGR8 (Homo sapiens, UniProt Q8WXD0); assay: Receptor-activation analysis: cAMP production in LGR8-expressing HEK293T cells; format: cell-based; details: for LGR8-activation activity (result in words): LGR8-expressing HEK293T cells
T2 construct: HEK293T cells stably expressing recombinant LGR7 or LGR8; expressed in transfected cells
Protocol: as §1, §2

T2 sequence (Q8WXD0 whole entry): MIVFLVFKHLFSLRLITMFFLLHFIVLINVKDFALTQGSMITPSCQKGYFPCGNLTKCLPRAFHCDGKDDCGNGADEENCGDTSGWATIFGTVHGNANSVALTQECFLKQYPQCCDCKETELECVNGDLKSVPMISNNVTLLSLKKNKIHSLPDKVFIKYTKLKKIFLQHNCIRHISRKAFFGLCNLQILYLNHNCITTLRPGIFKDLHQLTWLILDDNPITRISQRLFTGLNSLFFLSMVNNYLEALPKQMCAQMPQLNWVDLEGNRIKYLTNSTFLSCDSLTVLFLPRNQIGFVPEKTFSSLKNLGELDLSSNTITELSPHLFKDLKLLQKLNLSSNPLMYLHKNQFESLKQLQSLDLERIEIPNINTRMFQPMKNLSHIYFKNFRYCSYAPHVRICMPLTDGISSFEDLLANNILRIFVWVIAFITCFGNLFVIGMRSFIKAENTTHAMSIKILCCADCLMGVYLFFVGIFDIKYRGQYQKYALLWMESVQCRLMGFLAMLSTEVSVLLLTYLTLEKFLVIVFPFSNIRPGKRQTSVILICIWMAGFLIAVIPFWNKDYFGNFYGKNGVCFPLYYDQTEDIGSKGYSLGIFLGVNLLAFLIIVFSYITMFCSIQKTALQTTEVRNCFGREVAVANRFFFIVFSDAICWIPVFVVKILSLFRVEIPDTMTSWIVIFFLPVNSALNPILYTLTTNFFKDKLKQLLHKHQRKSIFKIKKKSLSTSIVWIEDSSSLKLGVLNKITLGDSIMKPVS

pEC50 on the activation of LGR7 (LGR7): 8.66 ± 0.07
Molecule: RLN2 C-28: tagged RLN2 from construct with B and A chains linked by a truncated C-domain of 28 amino acids (chain 1 SWMEEVIKLCGRELVRAQIAICGMSTWSHHHHHH; chain 2 QLYSALANKCCHVGCTKRSLARFC; not fully specified; ends and bridges not checked)

pEC50 on the activation of LGR7 (LGR7): 8.74 ± 0.09
Molecule: RLN2 C-18: tagged RLN2 from construct with B and A chains linked by a truncated C-domain of 18 amino acids (chain 1 SWMEEVIKLCGRELVRAQIAICGMSTWSHHHHHH; chain 2 QLYSALANKCCHVGCTKRSLARFC; not fully specified; ends and bridges not checked)

Molecule: RLN2 T^A16A: RLN2 mutant with alanine substitution at ThrA16 of the A chain (chain 1 SWMEEVIKLCGRELVRAQIAICGMSTWSHHHHHH; chain 2 QLYSALANKCCHVGCAKRSLARFC; not fully specified; ends and bridges not checked)
LGR7-activation activity (result in words) (LGR7): high potencies on the activation of both LGR7 and LGR8 | LGR8-activation activity (result in words) (LGR8): significantly enhanced LGR8-activation activity | LGR8-activation activity (result in words) (LGR8; listed as RLN2 TA16A): high potencies on the activation of both LGR7 and LGR8

Molecule: RLN2 K^A17A: RLN2 mutant with alanine substitution at LysA17 of the A chain (chain 1 SWMEEVIKLCGRELVRAQIAICGMSTWSHHHHHH; chain 2 QLYSALANKCCHVGCTARSLARFC; not fully specified; ends and bridges not checked)
LGR7-activation activity (result in words) (LGR7): high potencies on the activation of both LGR7 and LGR8 | LGR8-activation activity (result in words) (LGR8): significantly enhanced LGR8-activation activity | LGR8-activation activity (result in words) (LGR8; listed as RLN2 KA17A): high potencies on the activation of both LGR7 and LGR8

pEC50 on the activation of LGR7 (LGR7): 8.66 ± 0.09
Molecule: WT RLN2 (His1): recombinant wild type RLN2 with N-terminal Myc tag and His6 tag at the N or C terminus of the B chain (position 1) (chain 1 SWMEEVIKLCGRELVRAQIAICGMSTWS; chain 2 QLYSALANKCCHVGCTKRSLARFC; not fully specified; ends and bridges not checked; also: N-terminal Myc tag)

Molecule: RLN2 K^A17D: RLN2 mutant with aspartic acid at the LysA17 position (chain 1 SWMEEVIKLCGRELVRAQIAICGMSTWSHHHHHH; chain 2 QLYSALANKCCHVGCTDRSLARFC; not fully specified; ends and bridges not checked)
LGR8-activation activity (result in words) (LGR8): did not exhibit an enhanced LGR8-activation activity

pEC50 on the activation of LGR7 (LGR7): 8.77 ± 0.10
Molecule: WT RLN2 (His2): recombinant wild type RLN2 with N-terminal Myc tag and His6 tag at the N or C terminus of the B chain (position 2) (chain 1 SWMEEVIKLCGRELVRAQIAICGMSTWS; chain 2 QLYSALANKCCHVGCTKRSLARFC; not fully specified; ends and bridges not checked; also: N-terminal Myc tag)

Molecule: RLN2 R^B16A: RLN2 mutant with alanine substitution of ArgB16 in the B chain RXXXRXXI motif (chain 1 SWMEEVIKLCGRELVAAQIAICGMSTWSHHHHHH; chain 2 QLYSALANKCCHVGCTKRSLARFC; not fully specified; ends and bridges not checked)
LGR7-activation activity (result in words) (LGR7): abolished the LGR7- and LGR8-activation activities | LGR8-activation activity (result in words) (LGR8): abolished the LGR7- and LGR8-activation activities

pEC50 on the activation of LGR7 (LGR7): 7.73 ± 0.07 | LGR7-activation activity (result in words) (LGR7): selectively activated
Molecule: WT RLN3: recombinant wild type human relaxin 3 [reference compound]

Molecule: RLN2 K^A17G: RLN2 mutant with glycine at the LysA17 position (chain 1 SWMEEVIKLCGRELVRAQIAICGMSTWSHHHHHH; chain 2 QLYSALANKCCHVGCTGRSLARFC; not fully specified; ends and bridges not checked)
LGR8-activation activity (result in words) (LGR8): did not exhibit an enhanced LGR8-activation activity

Molecule: RLN2 R^B12A: RLN2 mutant with alanine substitution of ArgB12 in the B chain RXXXRXXI motif (chain 1 SWMEEVIKLCGAELVRAQIAICGMSTWSHHHHHH; chain 2 QLYSALANKCCHVGCTKRSLARFC; not fully specified; ends and bridges not checked)
LGR7-activation activity (result in words) (LGR7): abolished the LGR7- and LGR8-activation activities | LGR8-activation activity (result in words) (LGR8): abolished the LGR7- and LGR8-activation activities

Molecule: RLN2 K^A17Q: RLN2 mutant with glutamine at the LysA17 position (chain 1 SWMEEVIKLCGRELVRAQIAICGMSTWSHHHHHH; chain 2 QLYSALANKCCHVGCTQRSLARFC; not fully specified; ends and bridges not checked)
LGR8-activation activity (result in words) (LGR8): did not exhibit an enhanced LGR8-activation activity

pEC50 on the activation of LGR7 (LGR7): 8.74 ± 0.05
Molecule: RLN2 C-104: tagged RLN2 derived from the construct containing a 104-amino acid C domain sequence (chain 1 SWMEEVIKLCGRELVRAQIAICGMSTWSHHHHHH; chain 2 QLYSALANKCCHVGCTKRSLARFC; not fully specified; ends and bridges not checked)

LGR7-activation activity (result in words) (LGR7): decreased LGR7-activation activities
Molecule: RLN2^A19-20: RLN2 mutant with alanine substitution at the A19-20 positions of the A chain (chain 1 SWMEEVIKLCGRELVRAQIAICGMSTWSHHHHHH; chain 2 QLYSALANKCCHVGCTKRAAARFC; not fully specified; ends and bridges not checked)

pEC50 on the activation of LGR8 (LGR8; HEK293T cells stably expressing LGR8, mean ± S.E., ND = pEC50 not measurable): 9.03 ± 0.05 | LGR8-activation activity (result in words) (LGR8): selectively activated
B1: WT INSL3: recombinant wild type human insulin-like 3 (protein)
chain 1: PTPEMREKLCGHHFVRALVRVCGGPRWSTEAHHHHHH
chain 2: AAATNPARYCCLSGCTQQDLLTLCPY
modifications: left off: small tags and cut ends

— patent US9815881B2, “Method of inducing labor or treating pre-eclampsia by administering relaxin analogs” (The Board of Trustees of the Leland Stanford Junior …, priority 2009, dated 2017)
